From PMC11219949

Key:
[1] = molecular target: Recombinant His-tagged AUREO1c protein (Phaeodactylum tricornutum aureochrome 1c) (Phaeodactylum tricornutum); test: native MS; UHPLC-native MS (Waters BEH SEC column, 100 mM ammonium acetate, room temperature); 5 uM protein in PBS incubated under blue light (200 umol photons m^-2 s^-1) for 60 min, then cross-linked with 5 uM BS3 and quenched with Tris
[2] = molecular target: Recombinant His-tagged AUREO1c protein (Phaeodactylum tricornutum aureochrome 1c) (Phaeodactylum tricornutum); test: native MS; UHPLC-native MS (Waters BEH SEC column, 100 mM ammonium acetate, room temperature); 5 uM protein in PBS incubated in the dark for 60 min, then cross-linked with 5 uM BS3 and quenched with Tris

Recombinant His-tagged AUREO1c protein (Phaeodactylum tricornutum aureochrome 1c) (natural protein)
stoichiometry N [1]: 2 | stoichiometry N [2]: 2
